# Key:
# Experiment in all cases: pulldown with E. coli lysates, quantified
# [1] = molecular target: eIF4E-binding motif of human eIF4EBP1 (50-83) (UniProt Q13541); details: n = 3 independent experiments; parent: est. 0.90; read off a plot
# [2] = molecular target: eIF4E-binding motif of human eIF4ENIF1 (27-63) (UniProt Q9NRA8); details: n = 3 independent experiments; parent: est. 2.5; read off a plot
# [3] = molecular target: eIF4E-binding motif of human eIF4G (608-647) (UniProt Q04637); details: n = 3 independent experiments; parent: est. 0.30; read off a plot
# eIF4E-binding motif of human eIF4G (608-647), sequence (Q04637 608-647): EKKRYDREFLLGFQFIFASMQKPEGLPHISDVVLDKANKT
# mouse eIF4E1B (63-244) (from UniProt Q3UTA9) Dorsal (W101 mutated; new residue not printed), sequence (Q3UTA9 63-244, change not shown): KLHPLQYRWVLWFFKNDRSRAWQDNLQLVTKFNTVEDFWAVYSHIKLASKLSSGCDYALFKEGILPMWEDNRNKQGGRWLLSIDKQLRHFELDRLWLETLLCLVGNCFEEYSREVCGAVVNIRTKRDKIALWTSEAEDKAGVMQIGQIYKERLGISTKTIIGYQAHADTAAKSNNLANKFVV
# mouse eIF4E1B (63-244) (from UniProt Q3UTA9) Lateral (V91, T92, I107 mutated; new residues not printed), sequence (Q3UTA9 63-244, change not shown): as above
# eIF4E-binding motif of human eIF4ENIF1 (27-63), sequence (Q9NRA8 27-63): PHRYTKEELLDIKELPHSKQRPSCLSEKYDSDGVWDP
# eIF4E-binding motif of human eIF4EBP1 (50-83), sequence (Q13541 50-83): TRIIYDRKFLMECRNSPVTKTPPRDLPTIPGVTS
other: Binding (rel. to Mm eIF4E) (rel. to Mm eIF4E) [1],other: Binding (rel. to Mm eIF4E) (rel. to Mm eIF4E) [2],other: Binding (rel. to Mm eIF4E) (rel. to Mm eIF4E) [3],Substance
0.1,0.15,0.2,mouse eIF4E1B (63-244) (from UniProt Q3UTA9) Dorsal (W101 mutated; new residue not printed)
0.2,0.9,0.12,"mouse eIF4E1B (63-244) (from UniProt Q3UTA9) Lateral (V91, T92, I107 mutated; new residues not printed)"

# — PMC10883267 (2023)
